Data: paper PMC6391071, “Mechanisms of opening and closing of the bacterial replicative helicase” (eLife, 2018)
Several values for one entry are separate records, joined by “and”; a condition that tells them apart may be missing. Equal entries are not always repeated.

B1: Aquifex aeolicus DnaC helicase loader (natural protein, UniProt O67056 1-235, looked up)
chain: MQDTATCSICQGTGFVKTEDNKVRLCECRFKKRDVNRELNIPKRYWNANLDTYHPKNVSQNRALLTIRVFVHNFNPEEGKGLTFVGSPGVGKTHLAVATLKAIYEKKGIRGYFFDTKDLIFRLKHLMDEGKDTKFLKTVLNSPVLVLDDLGSERLSDWQRELISYIITYRYNNLKSTIITTNYSLQREEESSVRISADLASRLGENVVSKIYEMNELLVIKGSDLRKSKKLSTPS
notes: Aquifex aeolicus DnaC helicase loader; Six copies stand in the complex with the DnaB hexamer; also called AA DnaC; A. aeolicus DnaC; source: E. coli Rosetta (pET24a-AA-DnaC); cells co-lysed with cells expressing AA DnaB; purified as the BC complex (65°C step, heparin sepharose, Q-sepharose, Superdex-200)
B2: bacteriophage λP helicase loader (natural protein, UniProt P03689 1-233, looked up)
chain: MKNIAAQMVNFDREQMRRIANNMPEQYDEKPQVQQVAQIINGVFSQLLATFPASLANRDQNEVNEIRRQWVLAFRENGITTMEQVNAGMRVARRQNRPFLPSPGQFVAWCREEASVTAGLPNVSELVDMVYEYCRKRGLYPDAESYPWKSNAHYWLVTNLYQNMRANALTDAELRRKAADELVHMTARINRGEAIPEPVKQLPVMGGRPLNRAQALAKIAEIKAKFGLKGASV
notes: bacteriophage λ replication protein P (helicase loader), full length, 233 residues, 26,518 Da, untagged; Five copies stand in the predominant complex with the DnaB hexamer; The 6BBM model of λP has no side chains and covers about residues 109-233; also called lambdaP; LP; source: E. coli BL21(DE3), co-expressed with DnaB (pCDFDuet-λP); purified as the BP complex (ammonium sulfate, Q-sepharose, …)
B3: Aquifex aeolicus DnaB helicase (enzyme)
chain: LPCDESAERAVLGSMLEDPENIPLVLEYLKEEDFCIDEHKLLFRVLTNLWSEYGNKLDFVLIKDHLEKKNLLQKIPIDWLEELYEEAVSPDTLEEVCKIVKQRSAQRAIIQLGIELIHKGKENKDFHTLIEEAQSRIFSIAESATSTQFYHVKDVAEEVIELIYKFKSSDRLVTGLPSGFTELDLKTTGFHPGDLIILAARPGMGKTAFMLSIIYNLAKDEGKPSAVFSLEMSKEQLVMRLLSMMSEVPLFKIRSGSISNEDLKKLEASAIELAKYDIYLDDTPALTTTDLRIRARKLRKEKEVEFVAVDYLQLLRPPVRKSSRQEEVAEVSRNLKALAKELHIPVMALAQLSREVEKRSDKRPQLADLRESGQIEQDADLILFLHRPEYYKKKPNPEEQGIAEVIIAKQRQGPTDIVKLAFIKEYTKFANLEA
notes: Aquifex aeolicus DnaB replicative helicase; also called AA DnaB; A. aeolicus DnaB; source: E. coli Rosetta (pET24a-AA-DnaB); cells co-lysed with cells expressing AA DnaC; purified as the BC complex (65°C step, heparin sepharose, Q-sepharose, Superdex-200)

Experiments:
[1] = molecular target: T1, DnaB replicative helicase;lambda P helicase loader (Escherichia coli;bacteriophage lambda, UniProt P0ACB0;P03689 1-471;1-233, |); assay: native MS; no protein-DNA complex; 450 mM ammonium acetate pH 7.5, 0.5 mM magnesium acetate, 0.01% Tween-20; 5 uM protein, protein:ssDNA 1:1.2, 30 min on ice; conditions: protein: recombinant;recombinant; tags: untagged;; chain copies: 6;5; single strand
T1 sequence (P0ACB0 whole entry, one chain of several): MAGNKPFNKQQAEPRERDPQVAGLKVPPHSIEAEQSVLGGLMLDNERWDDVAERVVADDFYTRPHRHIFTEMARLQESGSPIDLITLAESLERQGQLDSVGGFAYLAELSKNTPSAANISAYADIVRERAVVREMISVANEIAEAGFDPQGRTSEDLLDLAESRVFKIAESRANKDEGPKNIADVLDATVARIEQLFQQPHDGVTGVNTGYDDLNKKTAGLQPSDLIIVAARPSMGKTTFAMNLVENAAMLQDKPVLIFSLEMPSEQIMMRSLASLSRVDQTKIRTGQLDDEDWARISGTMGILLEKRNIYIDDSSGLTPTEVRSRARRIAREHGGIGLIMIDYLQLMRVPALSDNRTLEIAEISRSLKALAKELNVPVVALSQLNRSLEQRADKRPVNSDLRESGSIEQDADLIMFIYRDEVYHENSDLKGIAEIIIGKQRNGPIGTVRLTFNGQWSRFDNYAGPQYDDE

[2] = molecular target: B3; assay: native MS; co-purified complex at 5 µM, buffer-exchanged into 450 mM ammonium acetate pH 7.5, 0.5 mM magnesium acetate, 0.01% Tween-20; no ssDNA; conditions: both partners purified
[3] = molecular target: T2, Escherichia coli DnaB helicase (Escherichia coli, UniProt P0ACB0 1-471); assay: native MS; BP sample in 500 mM ammonium acetate, 0.01% Tween-20, without magnesium acetate; conditions: both partners purified
T2 construct: E. coli DnaB replicative helicase, full length, untagged; Hexamer; The 6BBM model holds residues 17-471 at most; chain A lacks 167-203; also called EcDnaB; E. coli DnaB; source: E. coli BL21(DE3), co-expressed with λP (pET24-DnaB-EC); purified as the BP complex (ammonium sulfate, Q-sepharose, heparin sepharose, methyl HIC)
T2 sequence (P0ACB0 whole entry, the tested form may be a part): as the sequence (P0ACB0 whole entry, one chain of several) above

[4] = molecular target: T2, Escherichia coli DnaB helicase; assay: native MS; BP complex at 5 µM in 450 mM ammonium acetate pH 7.5, 0.5 mM magnesium acetate, 0.01% Tween-20; incubated with the Oriλ-derived 43-mer ssDNA at 1:1.2 for 30 min on ice; conditions: both partners purified
[5] = molecular target: T2, Escherichia coli DnaB helicase; assay: native MS; co-purified complex at 5 µM, buffer-exchanged into 450 mM ammonium acetate pH 7.5, 0.5 mM magnesium acetate, 0.01% Tween-20; no ssDNA; conditions: both partners purified
[6] = molecular target: the molecule itself; assay: as above
[7] = molecular target: T1, DnaB replicative helicase;lambda P …; assay: native MS; B6P5 with one ssDNA, 459.5 kDa; no nucleotide bound; 450 mM ammonium acetate pH 7.5, 0.5 mM magnesium acetate, 0.01% Tween-20; 5 uM protein, protein:ssDNA 1:1.2, 30 min on ice; conditions: protein: recombinant;recombinant; tags: untagged;; chain copies: 6;5; single strand

Binder: TTTTTTTTTTTTTTTTTTTTTTTTTTTTTTTTTTT (ssDNA) [T35]
- binding result [1]: no binding

Binder: TTTTTTTTTTTTTTTTTTTTTTTTT (ssDNA) [T25]
- binding result [1]: no binding

Binder: TTTTTTTTTTTTTTTTTTTTTTTTTTTTTTTTTTTTTTTTTTTTT (ssDNA) [T45]
- binding result [1]: no binding

Binder: B1
- stoichiometry N [2]: 6 DnaC per DnaB hexamer

Binder: B2
- stoichiometry N [3]: 5 λP per DnaB hexamer and 6 λP per DnaB hexamer and 4 λP per DnaB hexamer
- stoichiometry N [4]: 5 λP per DnaB hexamer
- stoichiometry N [5]: 5 λP per DnaB hexamer and 6 λP per DnaB hexamer and 4 λP per DnaB hexamer

Binder: B3
- stoichiometry N [6]: 6 subunits

Binder: TGACGAATAATCTTTTCTTTTTTCTTTTGTAATAGTGTCTTTT (ssDNA) [ori-lambda DUE 43-mer]
- binding result [7]: binds
